From article PMC4652773, “Functional significance of protein assemblies predicted by the crystal structure of the restriction endonuclease BsaWI”
Residue numbers refer to the chain shown, from its start.

Key:
Assay in all cases: EMSA; 5 mM Ca2+; EMSA: 40 mM Tris-acetate pH 8.3, 0.1 mg/ml BSA, 10% glycerol, 5 mM CaCl2 or 0.1 mM EDTA, 1 nM DNA, room temperature, 15 min
[1] = molecular target: T1, BsaWI E128A&R130A (UniProt Q6UQ65 1-272, E128A;R130A); conditions: protein: recombinant; chain copies: 2; label: 33P; blunt
T1 sequence: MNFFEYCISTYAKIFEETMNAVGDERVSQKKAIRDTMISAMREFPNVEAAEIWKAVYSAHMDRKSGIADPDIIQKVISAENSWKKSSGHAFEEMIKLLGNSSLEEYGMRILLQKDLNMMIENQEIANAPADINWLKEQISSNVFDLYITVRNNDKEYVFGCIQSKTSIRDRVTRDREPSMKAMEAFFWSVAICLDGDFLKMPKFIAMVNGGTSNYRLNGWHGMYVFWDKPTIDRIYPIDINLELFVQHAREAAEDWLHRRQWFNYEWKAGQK

[2] = molecular target: T2, BsaWI R259A&W262A (UniProt Q6UQ65 1-272, R259A;W262A); conditions: protein: recombinant; chain copies: 2; label: 33P; blunt
T2 sequence: T1 sequence with A128E, A130R, R259A, W262A

[3] = molecular target: T3, BsaWI D175A (UniProt Q6UQ65 1-272, D175A); conditions: protein: recombinant; chain copies: 4; label: 33P; blunt
T3 sequence: T1 sequence with A128E, A130R, D175A

[4] = molecular target: T4, BsaWI R130A&R259A (UniProt Q6UQ65 1-272, R130A;R259A); conditions: protein: recombinant; chain copies: 2; label: 33P; blunt
T4 sequence: T1 sequence with A128E, R259A

[5] = molecular target: T5, BsaWI R259A (UniProt Q6UQ65 1-272, R259A); conditions: protein: recombinant; chain copies: 2; label: 33P; blunt
T5 sequence: T1 sequence with A128E, A130R, R259A

B1: SP (dsDNA)
DNA 1: GCCTTTCGGTTTACCGGTGTCATTCCGCTG
DNA 2: CAGCGGAATGACACCGGTAAACCGAAAGGC
B1 showed a Kd [1] of 2.1 ± 0.5 nM, a Kd [2] of 2.6 ± 0.6 nM and a Kd [3] of 6.1 ± 2.3 nM. It also gave a Kd [4] of 2.7 ± 0.5 nM and a Kd [5] of 2 ± 0.3 nM.
